{
  "source": "paper PMC3059592",
  "about": "(Virology, 2010)",
  "target": "the molecule itself",
  "assay": "sucrose density gradient centrifugation",
  "note": "“And” between values parts separate entries of the source, which are not always exact repeats. Equal values may be shown once.",
  "data": [
    {"protein": "PIV-5 hemagglutinin-neuraminidase (HN) protein, mutant E37D (natural protein) MVAEDAPVRATCRVLFRTTTLIFLCTLLALSISILYDSLITQKQIMSQAGSTGSNSGLGSITDLLNNILSVANQIIYNSAVALPLQLDTLESTLLTAIKSLQTSDKLEQNCSWSAALINDNRYINGINQFYFSIAEGRNLTLGPLLNMPSFIPTATTPEGCTRIPSFSLTKTHWCYTHNVILNGCQDHVSSNQFVSMGIIEPTSAGFPFFRTLKTLYLSDGVNRKSCSISTVPGGCMMYCFVSTQPERDDYFSAAPPEQRIIIMYYNDTIVERIINPPGVLDVWATLNPGTGSGVYYLGWVLFPIYGGVIKGTSLWNNQANKYFIPQMVAALCSQNQATQVQNAKSSYYSSWFGNRMIQSGILACPLRQDLTNECLVLPFSNDQVLMGAEGRLYMYGDSVYYYQRSNSWWPMTMLYKVTITFTNGQPSAISAQNVPTQQVPRPGTGDCSATNRCPGFCLTGVYADAWLLTNPSSTSTFGSEATFTGSYLNTATQRINPTMYIANNTQIISSQQFGSSGQEAAYGHTTCFRDTGSVMVYCIYIIELSSSLLGQFQIVPFIRQVTLS", "values": [
      {"measurement": "stoichiometry N", "value": "2 and 4"}
    ]}
  ]
}
